Here are results for 5 molecules from publication PMC6405950, “Structure-function relationship of a citrus salicylate methylesterase and role of salicylic acid in citrus canker resistance” (Scientific Reports, 2019).

The target of one data set is T1, CsMES1 (Citrus sinensis, UniProt A0A067GV78).
T1 construct: gene CISIN_1g024065mg; recombinant CsMES1 (KDO79352) from pET28a in E. coli
T1 sequence (A0A067GV78 1-267): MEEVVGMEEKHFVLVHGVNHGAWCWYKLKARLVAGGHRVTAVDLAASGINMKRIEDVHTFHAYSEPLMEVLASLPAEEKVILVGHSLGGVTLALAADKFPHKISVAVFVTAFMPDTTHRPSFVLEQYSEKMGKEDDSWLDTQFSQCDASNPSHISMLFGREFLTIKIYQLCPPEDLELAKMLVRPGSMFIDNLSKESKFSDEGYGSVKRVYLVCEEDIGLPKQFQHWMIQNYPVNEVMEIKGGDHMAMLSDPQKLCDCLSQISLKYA
In words: ITC; also esterase inhibition (IC50 […] at […] MeSA). The data set is classed as binding. (ITC needs no label: the signal is the heat of the interaction.)

The next data set deals with T2, CsMES1 V18A (Citrus sinensis, UniProt A0A067GV78, V18A).
T2 construct: gene CISIN_1g024065mg; recombinant CsMES1 (KDO79352) from pET28a in E. coli
T2 sequence (A0A067GV78 1-267 V18A): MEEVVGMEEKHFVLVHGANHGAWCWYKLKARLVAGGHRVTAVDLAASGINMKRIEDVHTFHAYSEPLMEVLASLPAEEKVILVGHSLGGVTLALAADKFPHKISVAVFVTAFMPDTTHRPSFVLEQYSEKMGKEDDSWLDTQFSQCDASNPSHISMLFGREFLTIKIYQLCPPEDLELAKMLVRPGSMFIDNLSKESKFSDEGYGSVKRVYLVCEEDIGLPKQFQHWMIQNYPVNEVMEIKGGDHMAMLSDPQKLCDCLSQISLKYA
In words: biochemical. The data set is classed as binding.

Another data set deals with T3, CsMES1 V18S (Citrus sinensis, UniProt A0A067GV78, V18S).
T3 construct: gene CISIN_1g024065mg; optimized CsMES1 V18S synthetic gene in pET28a, recombinant from E. coli
T3 sequence (A0A067GV78 1-267 V18S): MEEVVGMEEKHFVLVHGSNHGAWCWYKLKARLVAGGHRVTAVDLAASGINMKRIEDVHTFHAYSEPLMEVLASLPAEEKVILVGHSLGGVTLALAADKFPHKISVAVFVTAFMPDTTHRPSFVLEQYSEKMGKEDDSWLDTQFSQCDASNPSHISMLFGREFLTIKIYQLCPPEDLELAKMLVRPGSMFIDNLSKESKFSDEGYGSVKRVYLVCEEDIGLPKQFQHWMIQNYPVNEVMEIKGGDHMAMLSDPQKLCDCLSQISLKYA
As to the kind of experiment: biochemical. It is filed as binding.

Data set [1] addresses Citrus sinensis salicylate methylesterase CsMES1 (recombinant, wild type) (Citrus sinensis). In words: SEC; analytical gel filtration on Superdex 75 10/300 in SEC buffer (137 mM NaCl, 10 mM Na2HPO4, 2.7 mM KCl, 2 mM KH2PO4, pH 7.5); mass estimated from standards (bovine serum albumin, ovalbumin, lysozyme).
Substrate in data set [2]: COC(=O)c1ccccc1O
In words: MeSA esterase kinetics, SA fluorescence (Km). It is filed as biochemical, Citrus sinensis. The following applies: active site.

In general, Kd refers to the constant that tells how readily two partners part at equilibrium. Lower therefore signals higher affinity. For `O=C(c1ccccc1)C(F)(F)F` [TriFA, 2,2,2-Trifluoroacetophenone], the figures for the dissociation constant (Kd) on CsMES1, on CsMES1 V18A and at CsMES1 V18S were 7100 nM, roughly 300 nM and roughly 300 nM, respectively.

One may read the stoichiometry N as a count of units in the complex or per binding partner. Consider “Citrus sinensis salicylate methylesterase CsMES1 (recombinant, wild type) (enzyme)”, for which the stoichiometry N in data set [1] was 2.

B1: CsMES1 (Citrus sinensis) (protein)
chain: MEEVVGMEEKHFVLVHGVNHGAWCWYKLKARLVAGGHRVTAVDLAASGINMKRIEDVHTFHAYSEPLMEVLASLPAEEKVILVGHSLGGVTLALAADKFPHKISVAVFVTAFMPDTTHRPSFVLEQYSEKMGKEDDSWLDTQFSQCDASNPSHISMLFGREFLTIKIYQLCPPEDLELAKMLVRPGSMFIDNLSKESKFSDEGYGSVKRVYLVCEEDIGLPKQFQHWMIQNYPVNEVMEIKGGDHMAMLSDPQKLCDCLSQISLKYA
notes: recombinant CsMES1 (KDO79352) from pET28a in E. coli
What is called Km is the substrate concentration at which the rate is half of its maximum. In general, kcat refers to the number of substrate molecules converted per active site and unit of time at saturation. As for B1, in data set [2], the Km came to 48.9 ± 15.63 µM and the catalytic constant (kcat) was 0.38 ± 0.06 s⁻¹.

B2: CsMES1 V18A (Citrus sinensis; V18A) (protein)
chain: MEEVVGMEEKHFVLVHGANHGAWCWYKLKARLVAGGHRVTAVDLAASGINMKRIEDVHTFHAYSEPLMEVLASLPAEEKVILVGHSLGGVTLALAADKFPHKISVAVFVTAFMPDTTHRPSFVLEQYSEKMGKEDDSWLDTQFSQCDASNPSHISMLFGREFLTIKIYQLCPPEDLELAKMLVRPGSMFIDNLSKESKFSDEGYGSVKRVYLVCEEDIGLPKQFQHWMIQNYPVNEVMEIKGGDHMAMLSDPQKLCDCLSQISLKYA
notes: as for B1
With B2, in data set [2], the Km is 11.7 ± 0.97 µM.

B3: CsMES1 V18S (Citrus sinensis; V18S) (protein)
chain: MEEVVGMEEKHFVLVHGSNHGAWCWYKLKARLVAGGHRVTAVDLAASGINMKRIEDVHTFHAYSEPLMEVLASLPAEEKVILVGHSLGGVTLALAADKFPHKISVAVFVTAFMPDTTHRPSFVLEQYSEKMGKEDDSWLDTQFSQCDASNPSHISMLFGREFLTIKIYQLCPPEDLELAKMLVRPGSMFIDNLSKESKFSDEGYGSVKRVYLVCEEDIGLPKQFQHWMIQNYPVNEVMEIKGGDHMAMLSDPQKLCDCLSQISLKYA
notes: optimized CsMES1 V18S synthetic gene in pET28a, recombinant from E. coli
Take B3: the Km in data set [2] was 16.1 ± 0.23 µM.
